Drawing on patent publication US20210214414A1 (Pfizer, published 2021), this text covers Kd and IC50 for 1 molecule.

In assay [1] the target is T1, Human/cynomolgus monkey SLIT2-D2 (human and cynomolgus monkey (100% …, UniProt O94813 271-479)).
T1 construct: domain: D2; the crystallisation construct (271-479, His6) is kept as a separate molecule; also called Human and Cynomolgus Monkey SLIT2-D2; SLIT2 D2 domain
T1 sequence (looked up): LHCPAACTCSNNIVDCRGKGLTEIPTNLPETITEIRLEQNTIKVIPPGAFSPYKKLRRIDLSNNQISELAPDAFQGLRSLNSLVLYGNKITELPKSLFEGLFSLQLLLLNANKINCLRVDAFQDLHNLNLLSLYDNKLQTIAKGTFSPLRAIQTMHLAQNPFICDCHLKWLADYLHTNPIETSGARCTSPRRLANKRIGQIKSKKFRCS
Description: SPR, ROBO2-Fc 2.2 captured by anti-human Fc on a C1 chip, SLIT2-D2 as analyte, 1:1 model. As for the experimental part:
HBS-EP was used as a diluent. […] An 8 point 2-fold dilution series was performed on the SLIT2 ligands, ranging from 2 nM to 15.6 pM using HBS-EPB as the diluent. […] Association of the indicated SLIT2 ligand was followed for 120 s and dissociation monitored for 180 s. The apparent binding affinity was determined using a simple 1:1 interaction model of the kinetic rate constants.
Background: SPR reads the build-up and loss of mass on a sensor chip optically.

For another assay, the target named is T2, Mouse SLIT2-N (mouse, UniProt Q9R1B9 26-1113, limits assumed).
T2 construct: domain: SLIT2-N; d2-labelled in the HTRF assay
T2 sequence (looked up): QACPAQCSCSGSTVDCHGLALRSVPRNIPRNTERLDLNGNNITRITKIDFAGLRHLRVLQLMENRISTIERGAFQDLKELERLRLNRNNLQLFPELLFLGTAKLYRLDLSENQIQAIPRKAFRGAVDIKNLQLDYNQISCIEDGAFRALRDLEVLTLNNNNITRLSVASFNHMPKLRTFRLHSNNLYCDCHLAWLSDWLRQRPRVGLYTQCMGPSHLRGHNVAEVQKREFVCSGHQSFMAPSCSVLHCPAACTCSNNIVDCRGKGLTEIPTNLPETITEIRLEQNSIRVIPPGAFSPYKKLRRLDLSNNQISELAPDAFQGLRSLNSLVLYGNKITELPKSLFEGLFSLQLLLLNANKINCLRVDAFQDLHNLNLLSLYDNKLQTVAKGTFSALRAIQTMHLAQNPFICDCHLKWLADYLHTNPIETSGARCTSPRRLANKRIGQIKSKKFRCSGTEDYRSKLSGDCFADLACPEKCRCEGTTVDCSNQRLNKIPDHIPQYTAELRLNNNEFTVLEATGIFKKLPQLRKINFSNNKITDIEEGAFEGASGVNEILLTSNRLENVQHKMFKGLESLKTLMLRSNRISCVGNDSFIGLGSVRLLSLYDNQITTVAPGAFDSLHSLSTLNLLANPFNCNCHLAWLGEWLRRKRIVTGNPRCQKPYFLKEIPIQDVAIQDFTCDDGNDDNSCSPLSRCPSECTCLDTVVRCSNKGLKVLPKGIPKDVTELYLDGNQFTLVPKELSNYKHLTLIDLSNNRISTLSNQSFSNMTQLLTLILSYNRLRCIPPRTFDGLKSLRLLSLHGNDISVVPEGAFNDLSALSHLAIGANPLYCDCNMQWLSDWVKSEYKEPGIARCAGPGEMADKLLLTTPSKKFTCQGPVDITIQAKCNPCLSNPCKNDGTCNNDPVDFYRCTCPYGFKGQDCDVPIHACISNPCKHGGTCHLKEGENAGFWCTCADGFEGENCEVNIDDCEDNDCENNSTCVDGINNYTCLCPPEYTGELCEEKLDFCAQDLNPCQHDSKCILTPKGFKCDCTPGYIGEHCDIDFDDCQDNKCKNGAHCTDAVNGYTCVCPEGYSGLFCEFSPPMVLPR
Description: HTRF competition: d2-labelled mouse SLIT2-N binding to human ROBO2 on HEK293 cells; geometric mean, n=3. As for the experimental part:
(§1) After incubation, fluorescence at 665 nm and 620 nm was measured on an Envision multilabel plate reader. The HTRF Ratio was calculated as follows: fluorescence at 665 nm/fluorescence at 620 nm×10,000. […] The IC₅₀ for each SLITx-N was determined using an 11-point, 4-fold dilution series with a top concentration of 4000 nM.

The next assay concerns the target T3, Rat SLIT2-N (rat, UniProt Q9WVC1 31-766, limits assumed).
T3 construct: domain: SLIT2-N (N terminal fragment)
T3 sequence (looked up): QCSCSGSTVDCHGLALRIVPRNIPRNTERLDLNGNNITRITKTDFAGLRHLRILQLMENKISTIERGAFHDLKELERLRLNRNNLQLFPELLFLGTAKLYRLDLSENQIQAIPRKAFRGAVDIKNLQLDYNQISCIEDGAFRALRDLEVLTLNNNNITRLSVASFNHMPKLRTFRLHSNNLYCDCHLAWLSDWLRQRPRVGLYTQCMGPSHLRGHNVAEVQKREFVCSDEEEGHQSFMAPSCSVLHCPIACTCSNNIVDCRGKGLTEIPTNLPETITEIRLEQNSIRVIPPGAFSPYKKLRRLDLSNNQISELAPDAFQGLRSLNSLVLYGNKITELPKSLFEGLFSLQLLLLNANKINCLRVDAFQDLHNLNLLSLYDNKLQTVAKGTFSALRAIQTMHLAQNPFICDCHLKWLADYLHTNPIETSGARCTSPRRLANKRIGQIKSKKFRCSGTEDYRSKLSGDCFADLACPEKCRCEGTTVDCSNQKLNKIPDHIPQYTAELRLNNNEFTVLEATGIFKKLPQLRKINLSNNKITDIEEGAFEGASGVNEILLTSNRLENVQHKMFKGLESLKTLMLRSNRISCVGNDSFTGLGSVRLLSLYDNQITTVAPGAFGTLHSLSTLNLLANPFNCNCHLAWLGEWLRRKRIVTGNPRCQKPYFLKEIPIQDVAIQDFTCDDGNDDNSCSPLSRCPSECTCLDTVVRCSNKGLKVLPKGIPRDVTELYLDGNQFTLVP
Description: HTRF competition: d2-labelled rat SLIT2-N binding to human ROBO2 on HEK293 cells (competitor: cell surface ROBO2). As for the experimental part: as §1

B1: ROBO2-Fc 2.2 (Fc fusion)
chain: SRLRQEDFPPRIVEHPSDVIVSKGEPTTLNCKAEGRPTPTIEWYKDGERVETDKDDPRSHRMLLPSGSLFFLRIVHGRRSKPDEGSYVCVARNYLGEAVSRNASLEVALLRDDFRQNPTDVVVAAGEPAILECQPPRGHPEPTIYWKKDKVRIDDKEERISIRGGKLMISNTRKSDAGMYTCVGTNMVGERDSDPAELTVFERGGSGGSEPKSSDKTHTCPPCPAPEAAGAPSVFLFPPKPKDTLMISRTPEVTCVVVDVSHEDPEVKFNWYVDGVEVHNAKTKPREEQYNSTYRVVSVLTVLHQDWLNGKEYKCKVSNKALPAPIEKTISKAKGQPREPQVYTLPPSREEMTKNQVSLTCLVKGFYPSDIAVEWESNGQPENNYKTTPPVLDSDGSFFLYSKLTVDKSRWQQGNVFSCSVMHEALHNHYTQKSLSLSPG
notes: Labelled with Alexa Fluor 647 in the flow cytometry assay; also called ROBO-Fc 2.2; ROBO2-Fc 2.2-AF647
Take B1: in assay [1], the dissociation constant (Kd) (commonly the free concentration of one partner at which half of the binding sites on the other are occupied at equilibrium, for simple one-to-one binding) is 0.293 nM. Further, the figures for the IC50 in the assay with Mouse SLIT2-N and with Rat SLIT2-N were 5.4 nM and 4 nM, respectively.
